Assay results taken from PMC5448004.

Molecular target: HepA (helicase protein A), archaeal HerA homolog of Thermus thermophilus, product of gene TTC0147 (Thermus thermophilus HB27)
Test: negative-stain single-particle electron microscopy; purified HepA at 0.3 mg/mL in 20 mM Tris-HCl pH 7.5, pre-incubated with 1-10 mM ATP (30 min, 65 °C), 2% uranyl acetate; 2D classification and 3D reconstruction with C6 symmetry

stoichiometry N: 6
Substance: HepA (helicase protein A), archaeal HerA homolog of Thermus thermophilus, product of gene TTC0147 (enzyme)
